Legend:
[1] = molecular target: Substrate AA
[2] = molecular target: RH substrate
[3] = molecular target: T1, TNO211 peptide (DABCYL-GABA-Pro-Gln-Gly-Leu-Glu(EDANS)-Ala-Lys-NH2)
T1 chain: PQGLEAK

B1: proteinase K (protein)
chain: AAQTNAPWGLARISSTSPGTSTYYYDESAGQGSCVYVIDTGIEASHPEFEGRAQMVKTYYYSSRDGNGHGTHCAGTVGSRTYGVAKKTQLFGVKVLDDNGSGQYSTIIAGMDFVASDKNNRNCPKGVVASLSLGGGYSSSVNSAAARLQSSGVMVAVAAGNNNADARNYSPASEPSVCTVGASDRYDRRSSFSNYGSVLDIFGPGTSILSTWIGGSTRSISGTSMATPHVAGLAAYLMTLGKTTAASACRYIADTANKGDLSNIPFGTVNLLAYNNYQA
visible color from cleavage of the dye-labelled immobilized substrate [1]: AA substrate reacted with pronase and proteinase K did produce a visible color within 2.5 h at 37 °C
cleavage of the dye-labelled immobilized substrate (color generation) [2]: none of the enzyme preparations were successful in cleaving the RH substrate

B2: MMP-2 (protein)
chain: YNFFPRKPKWDKNQITYRIIGYTPDLDPETVDDAFARAFQVWSDVTPLRFSRIHDGEADIMINFGRWEHGDGYPFDGKDGLLAHAFAPGTGVGGDSHFDDDELWTLGEGQVVRVKYGNADGEYCKFPFLFNGKEYNSCTDTGRSDGFLWCSTTYNFEKDGKYGFCPHEALFTMGGNAEGQPCKFPFRFQGTSYDSCTTEGRTDGYRWCGTTEDYDRDKKYGFCPETAMSTVGGNSEGAPCVFPFTFLGNKYESCTSAGRSDGKMWCATTANYDDDRKWGFCPDQGYSLFLVAAHEFGHAMGLEHSQDPGALMAPIYTYTKNFRLSQDDIKGIQELYGASPDIDLGTGPTPTLGPVTPEICKQDIVFDGIAQIRGEIFFFKDRFIWRTVTPRDKPMGPLLVATFWPELPEKIDAVYEAPQEEKAVFFAGNEYWIYSASTLERGYPKPLTSLGLPPDVQRVDAAFNWSKNKKTYIFAGDKFWRYNEVKKKMDPGFPKLIADAWNAIPDNLDAVVDLQGGGHSYFFKGAYYLKLENQSLKSVKFGSIKSDWLGC
protease activity (fluorescence from cleavage of substrate TNO211), relative to pronase [3]: 17±4%

Reference: patent US20080176263
